Data taken from patent US20230295310A1 (ABCELLERA BIOLOGICS, published 2023).

How the values were obtained:
[1] = target: T1, cynomolgus monkey CD3 expressed on cyno primary T cells (cynomolgus monkey, UniProt Q95LI5 22-198; Q95LI8 22-171; Q95LI7 23-181); assay: flow cytometry, cyno primary T cells
T1 construct: whole, on cells; CD3 complex on purified cynomolgus monkey CD3 pan T cells; also called cyno CD3
Outline: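 Values are fold over isotype: median fluorescence intensity of each antibody relative to isotype control after a 30-minute, 4° C incubation at 25 nM with CD3-bearing cells in PBS containing 2% FBS.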

[2] = target: T2, human CD3 expressed on cells (Jurkat cells; human primary T cells) (human, UniProt P07766 23-207; P04234 22-171; P09693 23-182); assay: flow cytometry, 25 nM, human primary T cells
T2 construct: whole, on cells
T2 sequence (P07766 23-207, chain 1 of 3): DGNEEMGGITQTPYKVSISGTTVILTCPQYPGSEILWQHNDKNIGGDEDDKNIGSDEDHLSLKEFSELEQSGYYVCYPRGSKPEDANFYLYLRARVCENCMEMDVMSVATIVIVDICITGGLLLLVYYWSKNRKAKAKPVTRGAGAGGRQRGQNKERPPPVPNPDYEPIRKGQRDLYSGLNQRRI
T2 sequence (P04234 22-171, chain 2 of 3): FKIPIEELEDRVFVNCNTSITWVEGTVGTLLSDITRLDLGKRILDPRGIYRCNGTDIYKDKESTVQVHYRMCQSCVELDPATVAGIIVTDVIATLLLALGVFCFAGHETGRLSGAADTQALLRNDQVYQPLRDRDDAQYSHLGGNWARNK
T2 sequence (P09693 23-182, chain 3 of 3): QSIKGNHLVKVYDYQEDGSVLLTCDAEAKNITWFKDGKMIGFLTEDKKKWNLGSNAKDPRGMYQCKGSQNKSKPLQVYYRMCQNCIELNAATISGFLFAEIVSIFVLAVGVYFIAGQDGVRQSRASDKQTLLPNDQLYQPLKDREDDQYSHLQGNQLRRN
Experimental: (§1) Purified antibodies were confirmed to bind CD3 expressed on cells using the CytoFLEX S or LX flow cytometers (Beckman Coulter). Antibodies were diluted to 25 nM in FACS buffer (PBS+2% FBS) and were incubated with CD3-expressing cells for 30 minutes at 4° C. […] The median fluorescence intensity of the binding signal for each antibody was normalized to the isotype control to obtain a fold over isotype value. An antibody with a fold over isotype (FOI) of ≥10 was considered to be positive for binding.

[3] = target: T2, human CD3 expressed on cells (Jurkat …); assay: flow cytometry, 25 nM, Jurkat cells
Experimental: as §1

T1 sequence (Q95LI5 22-198, chain 1 of 3): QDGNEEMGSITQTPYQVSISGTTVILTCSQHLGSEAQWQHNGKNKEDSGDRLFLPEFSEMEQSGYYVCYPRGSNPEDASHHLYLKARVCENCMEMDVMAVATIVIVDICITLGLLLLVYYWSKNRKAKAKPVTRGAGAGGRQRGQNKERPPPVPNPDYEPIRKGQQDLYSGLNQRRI
T1 sequence (Q95LI8 22-171, chain 2 of 3): as the sequence (P04234 22-171, chain 2 of 3) above, with I5V, N15K, I20V, S32T, D33N, I34N, T64A, S74N, V83L, H141R counted along it
T1 sequence (Q95LI7 23-181, chain 3 of 3): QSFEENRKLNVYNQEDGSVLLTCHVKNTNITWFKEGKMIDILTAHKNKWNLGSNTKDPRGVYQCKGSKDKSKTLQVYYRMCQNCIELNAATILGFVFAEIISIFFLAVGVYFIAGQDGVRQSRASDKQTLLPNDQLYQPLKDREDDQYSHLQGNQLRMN

| Binder | binding result [1] | Binding (FOI) [2] | Binding (FOI) [3] |
| --- | --- | --- | --- |
| mAb 201 (antibody, V domains shown, VH/VL only) VH: QVQLVESGGGVVQPGRSLRLSCAASGFTFSGYGMHWVRQAPGKGLEWVAIIYYNGKKEYYADSVKGRFTISRDNSKNTLYLQMNSLRAEDTAVYYCTRGEGYNWFDPWGQGTLVTVSS VL: EIVMTQSPATLSVSPGERATLSCRASQSVSSSLAWYQQKPGQAPRLLIYGASTRATGIPARFSGSGSGTEFTLTISSLQSEDFAVYYCQQYNNWPLTFGGGTKVEIK | no binding (tested: FOI <10 (FOI >=10 = positive); 25 nM) | 210 FOI | 166 FOI |
| mAb 204 (antibody, V domains shown, VH/VL only) VH: QVQLVESGGGVVQSGRSLRLSCAASGFTFSGYGMHWVRQAPGKGLEWVAIVYYDGKNKYYADSVKGRFTISRDNSKNTLYLQMNSLRAEDTAVYYCVRGEGYNWFDPWGQGTLVTVSS VL: EIVMTQSPATLSVSPGERATLSCRASQSVSSNLAWYQQKPGQVPRLLIYGASTRATGIPARFSGSGSGTQFTLTISSLQSEDFAVYYCQQYNNWPLTFGGGTKVEIK | no binding (tested: FOI <10 (FOI >=10 = positive); 25 nM) | 181 FOI | 162 FOI |
| mAb 209 (antibody, V domains shown, VH/VL only) VH: QVQLVESGGGVVQPGRSLRLSCAASGFTFSGYGMHWVRQAPGKGLEWVAIIYYNGKKEYYADSVKGRFTVSRDNSKNMLYLQMNSLRAEDTAVYYCTRGEGYNWFDPWGQGTLVTVSS VL: EIVMTQSPATLSVSPGERATLSCRASQTVSSNLAWYQQKPGQAPRLLIYGASTRATGIPARFSGSGSGTEFTLTISSLQSEDFAVYYCKQYNNRPLTFGGGTKVEIK | no binding (tested: FOI <10 (FOI >=10 = positive); 25 nM) | 228 FOI | 186 FOI |
| mAb 217 (antibody, V domains shown, VH/VL only) VH: QVQLVESGGGVVQPGRSLRLSCAASGFTFSGYGMHWVRQAPGKGLEWVAIIYYNGKKEYYADSVKGRFTIFRDNSKNTVYLQMKSLRAEDTAVYYCTRGEGYNWFDPWGQGTLVTVSS VL: not shown | no binding (tested: FOI <10 (FOI >=10 = positive); 25 nM) | 214 FOI | 173 FOI |
| mAb 203 (antibody, V domains shown, VH/VL only) VH: QVQLVESGGGVVQPGGSLRLSCAASGFTFRGYGMHWVRQAPGKGLEWVAIIYYNGRKTYYAESVKGRFTISRDNSKNTLSLQMNSLRVEDTAVYYCTAGQGYNWFDPWGQGTLVTVSS VL: EIVMTQSPATLSVSPGERATLSCRASQSVSSNLAWYQQKPGQAPRLLIYGASTRATGIPARFSGSGSGTEFTLTISSLQSEDFAVYYCQQFNAWPLTFGGGTKMEIK | no binding (tested: FOI <10 (FOI >=10 = positive); 25 nM) | 285 FOI | 201 FOI |
| mAb 216 (antibody, V domains shown, VH/VL only) VH: QVQLVESGGGVVQPGRSLRLSCAASGFTFSGYGMHWVRQAPGKGLEWVAIIYYNGKKEYYADSVKGRFTISRDNSKNTLYLQMNSLRAEDTAVYYCTRGEGYNWFDPWGQGTLVTVSS VL: EIVMTQSPATLSVSPGERATLSCRASQSVSSNLAWYQQKPGQAPRLLIYGASTRATGIPARFSGSGSGTEFTLTISSLQSEDFAVYYCKQYKNWPLTFGGGTKVEIK | no binding (tested: FOI <10 (FOI >=10 = positive); 25 nM) | 218 FOI | 182 FOI |
| mAb 205 (antibody, V domains shown, VH/VL only) VH: QVQLVESGGGVVQPGKSLRLSCAASGFTFSGYGMHWVRQAPGKGLEWVAIIYYNGKKEYYADSVKGRFTISRDNSKNTLYLQMNSLRAEDTAVYYCTRGEGYNWFDPWGQGTLVTVSS VL: EIVMTQSPATLSVSPGERATLSCRASQSVSSNLAWYQQKPGQAPRLLIYGASTRATGIPARFSGSGSGTEFTLTISSLQSEDFAVYYCKQYNNWPLTFGGGTKVEIK | no binding (tested: FOI <10 (FOI >=10 = positive); 25 nM) | 216 FOI | 180 FOI |
